Measurements: the nanobody polyreactivity screen of Harvey et al. (2022)

experiment: yeast display, Sf9 membrane polyspecificity reagent, FACS + sequencing; frameworks hold sequencing errors
Method in brief: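 After 36–48 hours of galactose induction, yeast (Saccharomyces cerevisiae BJ5465) displaying a synthetic nanobody library were stained at 4 °C for 1 hour with 10% biotinylated, detergent-solubilized Sf9 membrane reagent. Streptavidin microbeads enriched the stained cells before FACS sorting into low and high (top ~1%) gates on anti-HA and streptavidin fluorescence. Each clone's polyreactivity label reflects its gate of origin.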

Sequence	polyreactivity (PSR sort gate)
QVQLVESGGGLVQAGGSLRLSCAASGSTFSQYVMGWYRQAPGKERELVAAISSGGSTYYADSVKGRFTISRDNAKNTVYLQMNSLKPEDTAVYYCAAKYDGSYVGLYWYSMNYWGQGTQVTVSS	low polyreactivity
QVQLVESGGGLVQAGGSLRLSCAASGSTFSRNAMGWYRQAPGKERELVAAISYRGGSTYYADSVKGRFTISRDNAKNTVYLQMNSLKPEDTAVYYCNADVGWRAPDYGGYDYWGQGTQVTVSS	high polyreactivity
QVQLVESGGGLVQAGGSLRLSCAASGSTFSRNAMGWYRQAPGKERELVAAITSSGGSTYYADSVKGRFTISRDNAKNTVYLQMNSLKPEDTAVYYCAAPRRRHFDYWGQGTQVTVSS	high polyreactivity
QVQLVESGGGLVQAGGSLRLSCAASGSTFSRNAMGWYRQAPGKERELVASITRGGSTYADSVKGRFTISRDNAKNTVYLQMNSLKPEDTAVYYCAKSVTGWRGLWYTPRNYYWGQGTQVTVSS	high polyreactivity
QVQLVESGGGLVQAGGSLRLSCAASGSTFSRYAMGWYRQAPGKERDLVAAISWGGNTYYADSVKGRFTISRDNAKNTVYLQMNSLKPEDTAVYYCNRYSKLYNTMDYWGQGTQVTVSS	high polyreactivity
QVQLVESGGGLVQAGGSLRLSCAASGSTFSRYAMGWYRQAPGKERELVAAISRGGNTYYADSVKGRFTISRDNAKNTVYLQMNSLKPEDTAVYYCNRYSKLYNTMDYWGQGTQVTVSS	high polyreactivity
QVQLVESGGGLVQAGGSLRLSCAASGSTFSRYAMGWYRQAPGKERELVAAISWGGNTYYADSVKGRFTISRDNAKNTVYFQMNSLKPEDTALYYCATEVRYQGWRDYWGQVTQVTVSS	high polyreactivity
QVQLVESGGGLVQAGGSLRLSCAASGSTFSRYAMGWYRQAPGKERELVAAISWGGNTYYADSVKGRFTISRDNAKNTVYLQMNSLKPEDTAVYYCNRYTKLYNTMDYWGQGTQVTVSS	high polyreactivity
QVQLVESGGGLVQAGGSLRLSCAASGSTFSRYAMGWYRQAPGKERELVAAITRSGGGTHYADSVKGRFTISRDNAKNTVYLQMNSLKPEDTAVYYCNVAGVLYPFVSYDYWGQGTQVTVSS	low polyreactivity
QVQLVESGGGLVQAGGSLRLSCAASGSTFSRYTMGWYRQAPGKERELVAAIRRSGASTYYADSVKGRFTISRDNAKNTVYLQMNSLKPEDTAVYYCAVGRYRYGYWGQGTQVTVSS	high polyreactivity
QVQLVESGGGLVQAGGSLRLSCAASGSTFSRYTMGWYRQAPGKERELVASITRGGSTNYADSVKGRFTISRDNAKNTVYLQMNSLKPEDTAVYYCAARTARVSRYDYWGQGTQVTVSS	high polyreactivity
QVQLVESGGGLVQAGGSLRLSCAASGSTFSSNAMGWYRQAPGKERELVAAISSGGSTNYADSVKGRFTISRDNAKNTVYLQMNSLKPEDTAVYYCAADRSPEYYWGQGTQVTVSS	low polyreactivity
QVQLVESGGGLVQAGGSLRLSCAASGSTFSSYAMGWYRPAPGKERELVARITSGGSTYYADSVKGRFTISRDNAKNTVYLQMNSLKPEDTAVYYCAARGYYYRSRVSQFKYDYWGQGTQVTVSS	high polyreactivity
QVQLVESGGGLVQAGGSLRLSCAASGSTFSSYAMGWYRQAPGKERELVAAISTSGGRTYYADSVKGRFTISRDNAKNTVYLQMNSLKPEDTAVYYCAKKGIGYVRYYYWGQGTQVTVSS	high polyreactivity
QVQLVESGGGLVQAGGSLRLSCAASGSTFSSYAMGWYRQAPGKERELVAAITSGGSTNYADSVKGRFTISRDNAKNTVYLQMNSLKPEDTAVYYCNAQINDFIFVYDYWGQGTQVTVSS	low polyreactivity
QVQLVESGGGLVQAGGSLRLSCAASGSTFSSYGMGWYRQAPGKERELVASITIRGGSTYYADSVKGRFTISRDNAKNTVYLQMNSLKPEDTAVYYCAADVTNRGTWVIYGYYYWGQGTQVTVSS	low polyreactivity
QVQLVESGGGLVQAGGSLRLSCAASGSTFSSYTMGWYRQAPGKERELVATINSRGDNTYYADSVKGRFTISRDNAKNTVYLQMNSLKPEDTAVYYCAARSRRHDFDYWGQGTQVTVSS	high polyreactivity
